Results published in US12077763B2, “RNA-based control of powdery mildew” (Greenlight Biosciences, Inc., priority 2021, dated 2024).

B1: GS1868: dsRNA trigger SEQ ID NO 177; gene target Glycine-rich RNA-binding protein 4, mitochondrial (nucleic acid)
chain: TGCCCCATGAGAGACCGCCAATAAAGAGTTTAGGCATTCTGTATGTTAATTTTTATCCTCGCGAACCTGGTATAAAGTCTTAATCTCCGCGTGCATCCTTGAATAAAATGTGACAACGCCATCGAGTTTGAGAGGGAGAGAGAAAGTGGATACGGAACAGTTAAAGAAAAGTACATCGGGATATAACAAAACCTCCGTGTAGCATACAAATGAGGGGACGATGAATATATTTGTTTGCTTGGTGAACAGGCCGGGGAGGATTGGGATGAAGTAATGTTAGTACACACTGTCAGAGAACTAACGAACTTCTAGTGAGTTGCTCAAGAAGAGCAAAGTGCTGCGTTTATAGGGAGACCTGATGAACTTTATTAATTCGGTTTGGAGGAGCAATTTTTATAATGGACTGGAGTAACCGATCAGTCAATTTCGTGATAGAACTATTCTTCCGCAAATTGAGACGCAAAAGCTCTCTGATTGTGATGACAAGAGTTTTGCGGGTCTCAATAAAGGAATTGATGTTT
B2: GS1862: dsRNA trigger SEQ ID NO 149; gene target ATP-dependent RNA helicase dbp10 (nucleic acid)
chain: CTGCCTGGAATTTGACAACGCATGTAGGATTTCATTAAGTTGAGTGCTAAATCCCATTTCGAAAAGTCGATCTGCTTCATCAAATACCACATACTTGACCGAGGAAAGGTCTAATGACATTTCAATCTTAAGGTGTAAGAAGCGACCTGGCGTTGCAATAATAATATCAGGGTTGGCTGCCATAAATCTGAATTGATCTTCAAGACTATCTCCCCCTACAAGAAGAACGCATTTGAGATCAGTGCTCCGAGAAAATTCCTTAACGACTTTCAAAGTCTGCAAGGCAAGCTCTCGAGATGGGGATAGAATCAGAGCTCTAGCACCAACTCGAGCACTATGCGCCTTCAACATTTGAATCATCGGAATAACAAAAGCCGCTGTCTTTCCTGAACCGGTTCTAGCCATTCCCACGACATCTTGATGATCAAGAATCAGAGGTATTGTTTTTCTCTGGATTGGAGTCGGAACATTGAAGCCTTTTCTTTTGATGGCTCTCAAAAGATGAGCATCCAAACCCATAGATTGAAAA
B3: GS1867: dsRNA trigger SEQ ID NO 126; gene target hypothetical_protein_BGT96224_Ac30495 (nucleic acid)
chain: AAACCGAAATCTACGACAGGTAAAGCATCACGCAATATAACGGCGAAAGCCCACCTGCTATCACCTACTCTCAACGTCCTACGAAAAGATGTTGTTTTCGAGAAAGCGCTCAGTGACATGCATGGCTCTTCCGATAAATACCTAGATAAAGACTCTAGCATGGAAATTAATATAGGTGATGATATCAGCGAGGGGTCGAATGCGGATCCCTTTGCAGAAGAACTCCCCACGCCATCAATAGCGCCAGATACTGCGGTAGCTACCACACTTAACTTAGCACATGGACAGGACGTGAAAGATAATCACAATGCGGCTAGTCTCATGGATGCAATCAAAGGCCTACTAGACTTGACAAATGATTACTTAAAAAATCTTGAAGCACATCACCCAGGAGTTGGGGCAGACTTCTTAGCGCTTCTAGCGGACGGAGCCTCCCGAGCTATGCGCGGAGAGCGAGTTTATTCTAATACATCAAAAGTATGCGAAGGTAGAAAACAAGGAACACAGGCAACATGGACTGA
B4: GS1859: dsRNA trigger SEQ ID NO 207; gene target Citrate/oxoglutarate carrier protein (nucleic acid)
chain: AGGATCTTCTTTTGCTCTGCATTTCAACTCGAATAACCTCAATTGGTTGATTCCACGCACTCAACCCTCCCCCAAGGGCACTAGCGAGAATTCGTTCCCAAGCACTTAATGGACCGCCATTTTCTTTTCCTGAAACCTTTCGGATTCCCTGTTCTGCCAAACGACTTAATCCAAATCTGGATCCCCAATTCGTCATTTGTCGAATGGCAACAGCATTCACACCTTTATTAATACCTCTGATCCCATCTTTACGGTATATATCCATAAATGTTGAGAAAGTTCCTGGGGGCTTTACACCAGTGGATGCTAATTTGGATTTCGTAATCTCCACAGTTTTCATGCATGTACAAAAGCCCATAGTGGCATATGCTTGAGCCATACCCCCGACAACGCCTCCTGTGATGCCGGCTGTGAAGATGCCGGCTCCAAAACTTCGAGCATAGAATTCTGCTTCTGAAGCGACAAATAGAAGAACTGCACCTTTTGATGAAGCTTCAATCCAAGCCCATGGGATCAAGCCCTGATAAAAACCCAAAACA
B5: GS1864: dsRNA trigger SEQ ID NO 197; gene target NEDD8-conjugating enzyme UBC12 (nucleic acid)
chain: TTCCAAAAAAAAAACTCATCAGGTTTTTAGAACACAATCAAACGTTTGGCCCTTAATAGTACCGCCAGCCATACTATTTCTAACATTTCTCTTGAATATCTCACGATGATTCCGAAGATCTTCGGCGGCTTCTTTATTCAACGGATCCGAAGAATTTGGCTCTAAAAAGAGAAAAATAATTAAAGAATTCCAGTAGCGAACTAGACCAGAGTAGAGCAGGAAGGAGTATTCGATGATACCTAAAAAAAGACACACACGTTATAAAATGGCTCTAAGAATGGTATTGAGGCTAATGTATATTTTTTTCTTTGAAAAAACAAAAAACAAACAAACAAAAAAATTATGGATAATAAGTAATCCTACCACTACACTCTGTAGATTTAGGACCGGTTTCCAGTCCTCACGCAAGATATTGAGACACACGTTTCCATCAAGATCGATATTTGGATGATAAATCTTTTCTATACATTTTACTTTTGGCGCTTCATGAGGGAAGTTTTGAGAGATAGAAAAAGTGAATTGAAAAC
B6: GS1866: dsRNA trigger SEQ ID NO 163; gene target Proline-rich protein LAS17 (nucleic acid)
chain: ATATCGGGAGGGGTGGCGGTAATGAGGAAGGCTCTTGAGCTGCTATGAGAGATGGTGATGATTGTGCCTGATGTACTGGAAGTAATGGTAGTGATGATGTTTGAGTAACACGAAGAGATGTTGGCGATGGAGCTGGAGAAACTGAGGGATTTTTTGGTATTTGAGAGACTGTGAAAGATTGAGGTTGTGGACTATTTGGCTCTCTATTCTTTTCACAGTCTCGAGTAGTTATTTGAACACTAGGACGTAACGAGGAAGGAGGCAAAGGAGGTGTTGCTGATGCAGATACTATCGGAATTTTTGGAGGTAATTGGGGAGGAGGGAGATGCTCACTTTTAGCAAGAGGGGTTGTGACTTGGGAAGAACTTGTATGAAAAACACGAGTTAAAGGTGGTATTGTTTCACGTGGTGGTATTAAAGGCCCCGCACGATGTGAAATAAAAGATCCAGTGTTTTTCTCACCTGAAAAAGGTGGTGGTACGTTGAATTTAGAGACGCCCGATTCCGAATTTTCTTTAGAATTTTT
B7: GS1865: dsRNA trigger SEQ ID NO 183; gene target Protein transport protein SEC31 (nucleic acid)
chain: TTGAGCTTCTGGGTGTTTTGTAAGAGAGTTTGTGTTAAATAGTGTCTGTATAGAAATTTTGCCATCAAAAGACGCAGTTGCAGAAAGTGCTGGATTATGAGGATGAAATCGAGTCTGAAAGGTCCAGTTTGTAGCTTCAGGAAATTCTCCCAGGAGTTCTCCAAGCTGTGGGTTCCATAAGATAGTTCTATTATCTTTGCCACATGATAACAGCAAATTGCTGTCTTGTTGACACCATGAGATTGATAAAATTCCCTGATTATGGCCTTGTAATGTACATTCTGGTGCATTGGAATTTCGTAAATCCCAAAGAAGAATAACTGGTTTTGTATCATCAGGTGTTGCTGTTAGTAGCTTCGTTGAATTTTCTGGATCCCAAGCAATAGCTCCAACAGCTTTACGATTGTTATTCAAAGTCAATGACGCTTTTTTGGTTTTTAAGTCCCACACTGTAACAAATCCTCCAGTTCCACCAGTAGCCAAAATATGAGGAACTTTCCTATTCCAGGCAACACATTCAAGGTCAT
B8: GS1863: dsRNA trigger SEQ ID NO 167; gene target Chromatin remodeling factor mit1 (nucleic acid)
chain: TTGAGCCAAAATAAGAAACGACACGTAGCTTTGGAGCCCATTTTTTAATTTCTCGACGCCAATTAAGGCAAGTCGAATTAGGAGCTACAACTAAAAAGGGCCAACATTTCGAGTGATTTTTGACAATTGCTACGATAAAGGCAATAATTTGTATTGTCTTTCCTAAGCCCATCTCATCTGCTAGAATAACATTTTTCTTTTGATGGAAGTTATAAAGTAGCCAATTTAGACCTTCCATTTGATATTGCATCATCTTTCCTCCTGTGAGTTGTAGAGGTTGCTCTTTCATCTCAACTCTTCTTGAAAAATTTAATTTTCGGAACATCTGTAAGCGATGGTCCATAGCTGAAGTTGAGGATTGCCTAAAGTATTTTCCATCAATAAATTCATTATAGGCGGTAATAAAGCTTTGATATCTTTCGATATTCTCAATTTTTGGGGGCTCCATCCATACTGCTTCATCATAAGCAAGACCTTTGAATTTTACAAAGACTTCAGTGATCATATTAGCAGCAGCCTTGTCTATCTT
B9: GS1857: dsRNA trigger SEQ ID NO 129; gene target Transcriptional adapter 2 (nucleic acid)
chain: CTTGCTTGAAATTCTTCTCGTGGAATTTCTTCAAGAAGCTGAGTATCCTTGAGACTAGCTCTAACAGGTAGGGGAAACTTTGGACTATCCAGATAAACTTTCTGATAATGCGCCTTAACTTCGTCCTTGTCTCGATAACCTCCAATATGGTCTGCTATATCTGCCCATGATCCAAAGCCATATATTTCGGCTCCCTCCAAAAGAAGTAATTCTTCATCAGCACCCCAGTTTCTGTCATATATGGGAACTGAATTTTGCTCTATTACTCGGTATGGATGGGTTCCTGGGTTGTGGTTGTGTGAAGCTTCGCCATTTGAGAAGCATAGCACACAAAGATCATAATCATGACAGTGAGGGTCAGCACACCTAATTCGAACTGTCGAGGTAATGTCTGCTGAGCATACATCGCATACATACTTAACACCTCCCTCGGCACCTCGGGTCGCAGTCTTCTTCCTGATTTGGCCCATTGCTAAAACTCATGGTCAGTACTAGCAACAGAGCTCCCCTTGGTAGCACGAAGTTAAAACTGCAAATCCTTAAAATTTT

System: E. necator
Experiment: Leaf disc assay, dry inoculum (settling tower), decrease in disease severity / hyphal growth (Example 2)
Settings: decrease in disease severity (hyphal growth) relative to untreated control; time point 1 (untreated control hyphal growth ≥50%); value ± SE

Row | Molecule | % decrease =/− SE TP1
1 | B1 | 1 ± 6%
2 | B2 | 26 ± 4%
3 | B3 | 7 ± 4%
4 | B4 | 32 ± 5%
5 | B5 | 5 ± 6%
6 | B6 | 8 ± 5%
7 | B7 | 5 ± 6%
8 | B8 | 6 ± 5%
9 | B9 | 28 ± 5%

Same assay, conditions: decrease in disease severity (hyphal growth) relative to untreated control; time point 2; value ± SE

Row | Molecule | % decrease =/− SE TP2
10 | B2 | 29 ± 5%
11 | B4 | 26 ± 7%
12 | B5 | 3 ± 9%
13 | B6 | 13 ± 7%
14 | B7 | 3 ± 10%
15 | B9 | 14 ± 7%
